Experimental data from the supplement of paper PMC12636428.

Test system: Saccharomyces cerevisiae
Test: transcriptional activation domain activity (GFP:mCherry ratio, weighted mean of sorted bins, harmonized to initial dataset scale) (arbitrary fluorescence ratio units); higher = stronger transcriptional activation
Settings: beta-estradiol 1 µM; induction time 4 h
Summary of the method: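 After a 1:5 dilution into SC with 1 uM beta-estradiol and 4 hours at 30 °C, yeast diploids carrying a GFP reporter and URA3-integrated barcoded tiles were sorted into 8 bins by GFP:mCherry ratio. The tiles were fused to an estradiol-inducible synthetic transcription factor. Barcodes were sequenced, tiles below 50 reads were discarded, and activation activity was taken as the read-weighted mean of bin median fluorescence, averaged across barcodes and linearly mapped onto the initial dataset scale.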

| Sequence | transcriptional activation domain activity |
| --- | --- |
| GEVSEAEANGATTQAEDGATPAEGADKKKKKKKARKSKKAADAAAGGAEKPAE | 17900 |
| MVSFYYICSCAGSCWMLNARLHLWGLIFTVIFGDTVHVICLLFWFYFYRPPPF | 41200 |
| DLSKATKEVKEGGERKAAKGERETEQEKVEEGVKKLAVVDKKGGKNKTETNGS | 17700 |
| AREIISAGWAKVHDSGSRRNANSQPEEEEEGGWKAKLRELQEEAKAAARGVWG | 35300 |
| MAERNLTLFSSFFFFLLFFFFFFFFFLEDVFLFFLRMLFTFVGSWFFFFFSYL | 7100 |
| VFTDSLFQIVLVGRLTGFFYSFSFLFFFLSFFFFFSFIPFFPPFLYGLFFFLF | 67600 |
| DHLLKSLYMLIHTTLKCIKNLEFLGFYLFNSGFSSVFDECVFPYIRTLRCHQP | 65000 |
| PTWGLVLRLGCGIVYIVIFLVYVGLGGVFPGRYTYWGLSADNAGIMVYVLLCV | 60400 |
| GIISRLVRHAHEMSYITSPLCELAAMLSINWWVKRPFIYFELFGYIRMVLLQS | 86400 |
| MMPRGSYLAFFLLLLFYSFLSLFTPLNFVFLFFLSPLLRLHTLFYLLYFFGLA | 42100 |
| GGEGALTVAASARERERERERDREEREKREKRERARESQAVKRKKRPAEKEPP | 38000 |
| LRALCFEAIRNKGQSVMIARLLQRYMGQLTWLRGGNGVSLLVMVVRDVLLEMQ | 58900 |
| MILRAFFLLTVYFVCSPFFFLIIYLLFYDRPDSTLSWIWIWIHTFLPSLLFPS | 42500 |
| AQKVKNESDTDERPAPVKKGRKAATSKVKDESEDEAPAPAPAKRGRRAAAVKA | 47500 |
| MPQESKGKASAAAQRAHEKESKRARGALSCAECRRLKLKCDKSVPCSSCVRRG | 44700 |
| LLWGLALVCAFAFGRRRRRWWWWWWWWWLLLLLLLFIFFFWICLSLRFLLWTR | 54100 |
| MPTPGLDHSLQMMPDGNSGVNPSLLGDFDLFSASAYQAELDYLSFPFMDSFLA | 140000 |
| GKPRKRLAQACLTCREKKIKCEPGYPKCHQCAKSQRVCRGGLNQASIGNASGE | 36100 |
| LAESQRQNQQGGRGRGGRSLFDRTERGRGNRRGGHQGNGHHARQDEAANGGAE | 17600 |
| MHHELLRPILRLGHLMWTICFWMRRIMINAESPYRKTILHVRRSNWLFRRIIT | 81600 |
| HNLFELVFLDQMCGFCCFSMRFVVMLDLIGTIILPSTVIYLVYIIIAAVLKFQ | 38600 |

| Sequence | transcriptional activation domain activity |
| --- | --- |
| RGINAPLIQIPLYNNDPWIQTTISDDYLLPPGWFDILFPTNFDLLKDIYLTAF | 60600 |
| MCWACRILAAFPPPLPVFWFWFWFWFWFWFWFWLTAGWLAGFGFFVFAFCFLY | 32500 |
| HHFVCAFYFQDSWGLGLMKRLLIVVCLLLATYVFPLPLTSPPWSFIWKQSWVI | 48300 |
| GFHHLLPVFQMLLFKLDHRLYMNIGDVAKFLNITTINVLLLQLTDLHSLINIP | 54900 |
| MNTNWNILPPVLFKWGPSLMVLSFNKPYFCSALPWYLYLCIFMCCLTHLYYFI | 70600 |
| EVSEESGDSGDDEGRKEKKKRKRVKEEEVEDEGERKKKKSKKSKDEKSAEKAD | 47600 |
| CIFFFSYYGIRILQRGVLLLFILLFYISLCDPLLFPPLFFFSSSFLGRAFFLY | 89800 |
| LHYIYVVAISKSLSRLTLSYYTPAQLAMIGYFNLHIIWLKLMIPWRFFRLWSL | 43200 |
| VLPPLLLAILFAVLPFILRGLAWYECIPRYSLISVSVYRRFFLFLLIHGFLIV | 65300 |
| VSVRQASDGVGCLLEVMAHSRSVNAWTRVLKQLRLAQCVLLNIQQSLSQVWSM | 77300 |
| WLHKLPRATWAYPLYGIYYLLTNPALLSPLLSRIIPLLILSIFVLTFTFTFLY | 43800 |
| GMFDGVYTGLGVKLPVDKLERYSAAEIAIMSWRVVYLYYWISFCILILCFILF | 69900 |
| EPRQTGDSRSQSSGNTGENEEDIAFASGLNGGTFDSMLEALPDDLYFTDFVSP | 88800 |
| MSLRRSCLIFRWHVFMLLLMLFVRTWLVRLLVFLVFVVLMVRLLSLFPPFPLS | 32200 |
| GSRGGRGGRGGSGGRGGRGGSSGGGGRESSGGRSERGGRRGGSGASGTKRLGK | 15100 |
| MDRQQNGSKRTESVRQPVSCEPCRRRKIKCSRSHPPCDTCRRRRCPDSCVYKS | 43700 |
| TTTTAADDADTDSKKEKEKEQAAVKVKVKEKEKEKRVLVHCCMGRSRSGAVVV | 20200 |
| ERSILWRAYLRLISHINSIYKIRIAYEWTEDFVIKYLWSAAGYCLISVPVLLT | 54200 |
| DKKEAKPVNGESSKDTKPSGKEKEKELKDNAKPKEAKKGEGNKGGLAKAAAAP | 25800 |
| FRCLFLLFLLFSLICCRAISLQKHCLCLTYASSTALFVIVFILLLFWYLIIIT | 76100 |
| KQYCVRPNSGRIEPGKDVEVQILLQAMKEDPPMDAKCRDKFLVQSVAVTADKE | 59200 |

| Sequence | transcriptional activation domain activity |
| --- | --- |
| VFWRSLFNRVFDFGFDLVLFVFFSLALSLYFVVSHSKSLPFWFMCFFFIPLFN | 78000 |
| SSDEEEEPRPKGKGKGKAAVVKAKPKPVAEKGNNAGGKRKRDADSEADGGAAK | 44000 |
| HTKSTESLVQLDDADGSRLDKVSGSLIQSLLASLGAQHKLVADAALTFLTAGR | 43900 |
| GEEKPKPVRRQRQPKDPNAPPPQRKKRKTAAEKAAEAAAAASTPTPAPAPAPA | 13600 |
| ILCLSFSIKVLLCFLLIFFPLNVEPPPPDFFFHFLCLWFFFVISFLRFHLLYF | 59900 |
| DQSEISRTTSRSDTPLRDEDGLDFWETLRSLATTNPNPPVEKSAENDGAKPQV | 41100 |
| KGEERGMEKDKEKDKDRDREVKKEKAREARADKEGARPKAAIRQVKVKSAVKQ | 56500 |
| KFTAFTFLPLTLWHEFSFFFNLYFLVVALSQCIPVLRIGYLSSYIVPLVFVLA | 54900 |
| GQPTDASDGNATEGEVPEKPKKAKRKRVKKDAGEISDGGQPKSKPKKKRKPAK | 36100 |
| GWFGAVFGVLYFFLFIFGITSVYIGFSFLLYSICLSHGTVWHPLCQFHFFYFI | 28100 |
| PNLLMPCPWRSMDLCIFFRLAVGFFFLFLFPLSLSLPPSPFFFLFFSTPVIMV | 62500 |
| MFGFIVVLLFSLPFFFTSSTTLSSFYFSFTFLVHFFLSYSLNVFLSFFVWFFF | 58100 |
| MDASSPTSSSAKTPHNKGPRACATCARAKSRCIAGPDGAAGNCERCHRLKKPC | 9040 |
| MITRRTGGNSGNWVPSIRVQEGVLTKGFRPINMRSELVRLHEVVILVVGMEMD | 47100 |
| MGVLLVDFLTHWILFLFCSWFMLFSFGRFFGFSGSLLVRFLPDSDLLMFLVLL | 70600 |
| ARNGSSSGDILFSNGAHDMINNISTWTNNSVLDALNSKSILQTIFPQSQEPSS | 58200 |
| KIAAGAALATAAGVGLHHLRERQRSQSRSSSSERSGRSRSRHRLRHAAELGAA | 64000 |
| GDADEDGNGHGTHCSGTVAGKKYGVAKKANVYAVKVLRSNGSGSMSDVVKGVE | 30300 |
| RLLRNLPLIAGHGPKYLQGIDKFVENEFLTVVGTWMRATKFDVLSFMIHYVTL | 65500 |
| VEAPAEEQAEAPKTKRGRKAAEPAPVEPKEAEAPEPAAKPKRGRKAVSEEPME | 42100 |
| AAPKAKATTAKAKATTTKKATTAKASTTKKAAAAKPKANASKPRKAAAATAAA | 38600 |

| Sequence | transcriptional activation domain activity |
| --- | --- |
| SRITSIGVWYLLIQMIWYILFGILYIWFFCQTWESFTVLLVVDYSLRIILCLM | 58100 |
| FVNLPYYPHVHLSSFFFFCFSLSIFVLSFRFVHLIPFPSYLLCLSVRLFFGLL | 25600 |
| RAAVTLCSFFCFFFSWTYSSLFLLSFFIWTGFGRSYGVFFFFFFFFFFFFGGF | 19400 |
| SLAFQVDFTRKYGMVGFFLFWMMSQEAHHDPLLLLLHSPLYFPIFLLFWVILN | 68800 |
| MPSITLTWPDRAYFYSLLVVSLLSAKLLHVFSHLTTIPIFLFLLYFPTFFFLD | 57300 |
| TENIERVLERGERIDLLVDKTGRLNVGANEFRRRSRGLRRRMWWKNVKLMALL | 65200 |
| WLLQYMMLLGTLRRQSDKLVVKVGWYMANYLVPGIYVFQPRIVMKVLLLILRQ | 44500 |
| VGISLFLIACKLYLTVYYNELLISNPASAKSIYKILEYVNIMVYVSKAFGMYQ | 62800 |
| DSDSEEEEEGWQLSPHDVDKVRQMLEPDEVSLQRALQTTPAMRIGMIIWLVIT | 53000 |
| AGLTLPRTSDYSLFYYFLLWFTLFGLAMLFIIIHGIDYVSWPRLIPLTDIIYY | 17600 |
| VQLVLVLILVNILINILTFLILSHQGVMHTSCLYLFAYICARLCLGASLSGVW | 12800 |
| CYVLRDVFFCTVFFAFAGSIEALLQSGFCGYFPLTSTWQIVLLRALMWMTYWW | 51000 |
| MLNLHQSCLLLCSLLIITGLGLASTIFIPVNPFYQLLLMENSAFPWIHFVIYC | 38500 |
| FLTAIPAVPFAGGLSFNILLLFHHSLPFAGFLAHGFYRIIFPITLFFLPIFML | 52900 |
| GLKRLAMLLRRMLSEKDLIFVFKGLQFLKYWTLSAEEIHTHARYWRRAWKILS | 52400 |
| FWFPNYIFGALSFFSWMSWIAPTNINLANITGSSTGLGLNPFSSFDWNVWTFN | 51400 |
| YLINLLYQLLWLVPFSAPLSLRSTLAKVYEFGGVHSGSAICSVLWFILLTVFL | 64900 |
| MHCVLALSLGLLSRVIVFYGCSFRGKLHFMMFWEALYLLLIFMRMLWLLFFIT | 51000 |
| PRFLMYCKLGICQLVILRLFTSTFTIVLEMMGLFCPESMSWRFGHFWAVLFNF | 63600 |
| VNSHGYKHISNLDELDDLLSLTYSDNNLLSASNNSDFNNSNNGIINTADTQNS | 106000 |
